From publication PMC6182155 (Nucleic Acids Research, 2018)
Where a chain is given by its changes, count along the chain named. In names and notes the source's numbering stands.

B1: EcoKMcrA with C-terminal His6-tag (EcoKMcrA_(1-277)-GHHHHHHG), wild type (enzyme, E. coli (K strains), UniProt P24200 1-277, looked up)
chain: MHVFDNNGIELKAECSIGEEDGVYGLILESWGPGDRNKDYNIALDYIIERLVDSGVSQVVVYLASSSVRKHMHSLDERKIHPGEYFTLIGNSPRDIRLKMCGYQAYFSRTGRKEIPSGNRTKRILINVPGIYSDSFWASIIRGELSELSQPTDDESLLNMRVSKLIKKTLSQPEGSRKPVEVERLQKVYVRDPMVKAWILQQSKGICENCGKNAPFYLNDGNPYLEVHHVIPLSSGGADTTDNCVALCPNCHRELHYSKNAKELIEMLYVNINRLQK
B2: EcoKMcrA K196E variant with N-terminal His6-tag (…-EcoKMcrA_(1-277)) (enzyme, E. coli (K strains), UniProt P24200 1-277, looked up)
chain: B1 chain with K196E

What was measured:
SEC = target: the molecule itself; assay: SEC
crystal structure = target: the molecule itself; assay: crystal structure

Protein	stoichiometry N (SEC)	binding result (crystal structure)
B1	2	
B2		binds
